According to US20230192831A1:
Positions count from the first letter of the chain named.

B1: H4H2783N2 (antibody, human IgG4, V domains shown)
VH: EVQLLESGGGLVQPGGSLRLSCAASGFTFSSYVMNWVRQAPGKGLEWVSAISGSGGSTYYADSVKGRSTISRDNSKNTLYLQMNSLRAEDTAIYYCAKGDIAAIVFDAFDIWGQGTVVTVSS
VL: DIQMTQSPSSLSASVGDRVTITCQASQDISSALNWYQHKPGKAPKLLIYDASYLETGVPSRFSGSGSGTDFTFTISSLQPEDIATYYCQQYDNLPYTFGQGTKLEIK
B2: H4H6245P (antibody, human IgG4, V domains shown)
VH: EVQLVESGGGLVQPGGSLRLSCAASGFTFNSFWMSWVRQAPGKGLEWVANIKQDGSEKYYVDSVKGRFTISRDNAKNSVYLQMNSLRAEDTAVYYCARDLVTSFDYWGQGTLVTVSS
VL: B1 VL with S30N, S31N, A32Y, H38Q, R61G, N93S
B3: H4H2780N (antibody, human IgG4, V domains shown)
VH: EVQLVESGGGLVKPGGSLRLSCAASGFTFSTYSMNWVRQAPGKGLEWVSSISSGSSYIYYTDSVKGRFTISRDNAKNSLYLQMNSLRAEDTAVYYCARFGSYYYFGFDVWGQGTTVTVSS
VL: DIQMTQSPSSLSASVGDRVTITCRASQGISNYLAWYQQKPGKVPKLLIFSASTLQSGVPSRFSGSGSGPDFTLTVSSLQPEDVATYYCQKYNSAPFAFGPGTKVDIK
B4: H4H6232P (antibody, human IgG4, V domains shown)
VH: QVQLVQSGAEVKKPGASVKVSCKVSGYTLTELSMHWVRQAPGKGLEWMGGFDPEDGETIYAQKFQGRLTMTEDTSTDTAYMELSSLRSEDTAVYYCATDDYDILTSYPYNMDVWGQGTTVTVSS
VL: DIQMTQSPSSLSASVGDRVTITCRASQSINNYLNWYQQKPGKAPKLLIYAASSLQSGVPSRFSGSGSGTDFTLTISSLQPEDFGTYYCQQSDSTPFTFGPGTKVDIK
B5: H4H6243P (antibody, human IgG4, V domains shown)
VH: B4 VH with G66D, L68V, A97V, D102E, T105P, S106E
VL: B4 VL with N30S, N31T, S76R, G84A, D92H, S93I
B6: H4H6246P (antibody, human IgG4, V domains shown)
VH: QVQLVESGGGVVQPGRSLRLSCAASGFTFSSYGMHWVRQAPGKGLEWVAIIWYDGSNRYYADSVKGRFTISRDNSRNTLYLQMNSLRAEDTAVYYCARDEYGDYDYPFDYWGQGTLVTVSS
VL: DIQMTQSPSSLSASVGDRVTITCRASQGIRNDLGWFQQKPGKAPKRLIYAASSLQSGVPSRFSGSGSGTEFTLTISSLQPEDFATYYCLQHNTYPPFTFGPGTKVDIK
B7: H4H2926N (antibody, human IgG4, V domains shown)
VH: EVQLVESGGGLVQTGRSLRLSCAASGFTFDDYAMNWVRQAPGKGLEWVSGISWNSGNIGYADSVKGRFTISRDNAKNSLYLQMNSLRAEDTALYYCVKYIGQQLVQDYFDYWGQGTLVTVSS
VL: DIQMTQSPSSLSASVGDRVTITCQASQDITNYLNWYQQRPGKAPKLLIYDAFNLERGVPSRFSGSGYGTYFTFTISSLQPEDIAIYYCQQYDNLPLTFGGGTKVEIE
B8: H4H6240P (antibody, human IgG4, V domains shown)
VH: QVQLVESGGGVVQPGRSLRLSCAASGFTFSSYGMHWVRQAPGKGLEWVAVIWYDGSNKYYADSVKGRFIISRDNSKNMMYLQMNSLRAEDTAVYYCAREDNWNYAFDYWGQGTLVTVSS
VL: EIVMTQSPATLSVSPGERATLSCRASQSISSNLAWYQQKPGQAPRLLIYDSSTRATGIPARFSGSGSGTQFTLTISSLQSEDFALYYCQQYSNWPPFTFGPGTKVDIK
B9: H4H2892N (antibody, human IgG4, V domains shown)
VH: QVQLVESGGGVVQPGRSLRLSCAASGFTFSSYGIHWVRQAPGKGLEWVAILWYDGSNKYYADSVKGRFTISRDNSKTTLYLQMNSLRAEDTAVYYCARENYNDLNFDLWGRGTLVTVSS
VL: DIQLTQSPSFLSASVGDRVTITCWASQGISSYLAWYQHKPGKAPKLLIYAASTLQSGVPSRFSGSGSGIEFTLTISSLQPEDFATYYCQQLKSYPPWTFGQGTKVEIR
B10: H4H2889N (antibody, human IgG4, V domains shown)
VH: QVQLQESGPGLVKPSETLSLTCTVSGGSISNSYWSWIRQPPGKGLEWIGYIYYSGNTNYNPSLKSRVTISVDTSKNQFSLKLSSVTAADTAVYYCARVNDYSNYDSYYYGMDVWGQGTTVTVSS
VL: AIQMTQSPSSLSASVGDRVTITCRASQGIRNDLGWYQQKPGKAPKLLIYAASSLQSGVPSRFSGSGSGTDFTLTISSLQPEDFATYYCLQDYNYPPTFGQGTKVDIK
B11: H4H6269P (antibody, human IgG4, V domains shown)
VH: QVQLQESGPGLVKPSQTLSLTCTVSGGSISSGGYYWTWIRQHPGKGLEWIGYIYYSGSTYYNPSLKSRVTMSVDTSKNQFSLKLSSVTAADTAVYYCARLLDFDYWGQGTLVTVSS
VL: B10 VL with T69R, T85S, Y92H, P96L, Q100G, D105E
B12: H4H2895N (antibody, human IgG4, V domains shown)
VH: EVQLVESGGGLVQPGGSLRLSCAASGFTVSSNYMSWVRQAPGKGLEWVSVIYSGGNTYYADSVKGRFTISRHNSKNTLYLQMNSLRAEDTAVYYCARDLGIKSDYWGQGTLVTVSS
VL: EIVLTQSPDFQSVTPKEKVTITCRASQSIGTTLHWYQQKPDQSPKLLIKYVSQSLSGVPSRFSGSGSGTDFTLTINSLEAEDAATYYCHQSSSLPWTFGQGTKVEIK

These binders were tested against recombinant human GREM1 (hGREM1-His; C-terminal 10His tagged, R&D, #5190-GR) (human) (UniProt O60565) (assay: BLI Octet, captured mAb, 100 nM GREM1).
Sequence of recombinant human GREM1 (hGREM1-His; C-terminal 10His tagged, R&D, #5190-GR) (human) (O60565 other isoform, or with tags, fused parts or gaps limits assumed, form in doubt): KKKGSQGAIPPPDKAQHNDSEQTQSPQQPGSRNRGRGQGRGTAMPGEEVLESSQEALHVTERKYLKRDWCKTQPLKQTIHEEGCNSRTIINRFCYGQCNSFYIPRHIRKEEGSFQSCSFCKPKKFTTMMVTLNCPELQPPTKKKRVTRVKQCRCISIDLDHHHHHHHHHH

Binding Signal with 30 sec Association (nm)	Binding Signal with 300 sec Association (nm)	Binder
0.29	0.47	B1
0.23	0.41	B2
0.13	0.58	B3
0.33	0.48	B4
0.3	0.47	B5
0.19	0.38	B6
0.23	0.49	B7
0.23	0.53	B8
0.2	0.49	B9
0.2	0.46	B10
0.15	0.6	B11
0.15	0.5	B12

The binders below were run against recombinant human GREM1 (hGREM1-His; C-terminal 10His tagged, R&D, #5190-GR) (human) (UniProt O60565) (assay: cell-based or functional assay).

IC50 [M], W-20-17/BRE-luc luciferase bioassay, 100 pM hBMP4 and 10 nM hGREM1-His	hGREM1-His Inhibition IC50, M; W-20-17 cell differentiation assay (alkaline phosphatase) [nM]	Binder
1.3e-09 M	5.6	B1
5.3e-10 M	6.1	B2
49		B3
7.8e-10 M	4.5	B4
5.4e-10 M	5.9	B5
5.6e-10 M	6.2	B6
1.2e-09 M	13	B7
8.1e-10 M	7.8	B8
9.5e-10 M	4.4	B9
1.2e-09 M	5.4	B10
5.8e-10 M	1.9	B12

These binders were tested against recombinant human GREM1 (hGREM1-His; C-terminal 10His tagged, R&D, #5190-GR) (human) (UniProt O60565) (assay: BLI Octet, captured mAb, 100 nM GREM1 + 5 uM heparin).

Binding Signal with 30 sec Association (nm)	Binding Signal with 300 sec Association (nm)	Binder
0.01	0.29	B1
0.02	0.22	B2
0.13	0.58	B3
0.06	0.46	B4
0	0.21	B5
0.06	0.34	B6
0.07	0.42	B7
0.05	0.37	B8
0.15	0.49	B9
0.05	0.44	B10
0.14	0.52	B11
0.22	0.54	B12

Each binder was assayed against recombinant human GREM1 (hGREM1-His; C-terminal 10His tagged, R&D, #5190-GR) (human) (UniProt O60565) (assay: BLI Octet, captured mAb, 100 nM GREM1 without vs with 5 uM heparin).

Reduction in Signal from Heparin at 30 sec [nm]	Reduction in Signal from Heparin at 300 sec [nm]	Binder
0.28	0.18	B1
0.21	0.19	B2
0	0	B3
0.27	0.02	B4
0.3	0.26	B5
0.13	0.04	B6
0.16	0.07	B7
0.18	0.16	B8
0.05	0	B9
0.15	0.02	B10
0.01	0.08	B11
-0.07	-0.04	B12
